This passage reports inhibition and IC50 results from patent US20160376555A1, “NOVEL METHODS TO REGENERATE HUMAN LIMBAL STEM CELLS” (The Regents of the University of California, priority 2012, published 2016).

For experiment [1], the system named is Wnt3a activities. The experiment is described as follows: Wnt reporter gene assay. The format is cell-based. The note with it: Dkk2 at 125 nM. The text has this: As discussed above, Wnt/β-catenin and Notch pathways play pivotal roles in the fate determination decision between epidermal and corneal epithelial lineage in mice. In particular, Dkk2 is necessary for corneal development and activation of Notch1 is required to maintain the corneal lineage. Dkk2 alone or in combination with Notch1 activation may facilitate and increase the efficiency of the reprogramming process in humans. Functional recombinant Dkk2 protein can be provided by Dr. Jie Zheng (St. Jude Children's Research Hospital) (see, e.g. Lin et al., Proc Natl Acad Sci USA 2010; 107:4194-4199). It inhibits Wnt3a activities with an IC50 value around 8 nM in the Wnt reporter gene assay(see, e.g. Lujan et al., Proc Natl Acad Sci USA 2012; 109:2527-2532). Therefore, we can use the 3-step coculture protocol as described above and add Dkk2 to the culture medium at various concentrations starting at 8 nM to the Step 1 co-culture, which is the reprogramming step. Phenotypic analysis can be performed in each of the 3 steps to determine the outcome of transdifferentiation by the expression of K12 and K10 in the cultured epithelial cells. The optimal concentration of Dkk2 that achieves the highest portion of K12+ cells in Step 3 can be determined. This concentration of Dkk2 can be used. […]

For experiment [2], the system named is Wnt3a activities. The note with it: functional recombinant Dkk2 protein; Wnt reporter gene assay; read-out: IC50, inhibition of Wnt3a activities; cited from earlier work. For orientation: A reporter such as luciferase makes a cellular process visible.

B1: Dkk2: Functional recombinant Dkk2 protein, a Wnt inhibitor (protein, UniProt Q9UBU2 34-259, looked up)
Dickkopf-related protein 2: KLNSIKSSLGGETPGQAANRSAGMYQGLAFGGSKKGKNLGQAYPCSSDKECEVGRYCHSPHQGSSACMVCRRKKKRCHRDGMCCPSTRCNNGICIPVTESILTPHIPALDGTRHRDRNHGHYSNHDLGWQNLGRPHTKMSHIKGHEGDPCLRSSDCIEGFCCARHFWTKICKPVLHQGEVCTKQRKKGSHGLEIFQRCDCAKGLSCKVWKDATYSSKARLHVCQKI
For B1, the inhibition (as a rule, the percentage by which the read-out fell short of the control) with Wnt3a activities [1] came to 90%. In addition, the IC50 (in general, the concentration that gives 50% inhibition) in the experiment with Wnt3a activities [2] was ~8 nM.
